The target of this test is G-actin (UniProt P68135). As to the kind of experiment: size exclusion chromatography. In general terms: In gel filtration, larger molecules generally elute earlier.

On to MRTF-A(67–199) L74A; L78A, for which the other: actins (apparent stoichiometry of G-actin binding) was found to be 2.2.

Source of the values: article PMC4963197, “Phosphorylation acts positively and negatively to regulate MRTF-A subcellular localisation and activity” (eLife, 2016).
